Assay [1] concerns the target Botulinum neurotoxin serotype A (BoNT/A) holotoxin (Clostridium botulinum serotype A, …, UniProt P0DPI1). Briefly: SPR; Biacore; […] (50 ug/mL) […], in HBS-EP ([…]; 120 s flow, 600 s dissociation; […]. The following applies: both partners purified. (Surface plasmon resonance follows binding to a sensor surface in real time, without labels.)
For assay [2], the target named is recombinant C-terminal domain of the BoNT/A heavy chain (heavy chain receptor domain, HCR) (Clostridium botulinum serotype A, …, UniProt P0DPI1). Described as above. To be noted: both partners purified.

This passage reports Kd results from paper PMC11946523 (Toxins, 2025).

By Kd is commonly meant the concentration at which binding is half-saturated.

B1: HZ45 humanized monoclonal antibody (antibody, V domains shown)
VH: EVQLVQSGAEVKKPGASVKVSCKASGYTFTDYYINWVRQATGQGLEWLGESYPGSGTAFYNEKFKGKATLTADKSKNTAYMELSSLRSEDTAVYFCARSDGSPFAYWGQGTLVTVSS
VL: DIQMTQSPSSLSASVGDRVTITCKASDYINNWLAWYQQKPGKAPKLLISGAISLETGVPSRFSGSGSGTDYTLTISSLQPEDFATYYCQQYWSPPLTFGQGTKVEIK
notes: also called HZ45 mAb; HZ45 antibody; source: CHO-K1, transfected, purified from culture medium (ammonium sulfate, HIC-Phenyl)
Consider B1, for which the Kd amounted to 0.551 nM in assay [1] and 0.0423 nM in assay [2].
